# Laboratory results reported in the nanobody polyreactivity screen of Harvey et al. (2022).
# Assay: yeast display, Sf9 membrane polyspecificity reagent, FACS + sequencing; frameworks hold sequencing errors
# In short: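 A nanobody's polyreactivity label depends on the gate it was sorted from. Yeast display cells were stained with 10% biotinylated, detergent-solubilized Sf9 membrane reagent for 1 hour at 4 °C, enriched on streptavidin microbeads and sorted by FACS. The low and high (top ~1%) gates were set on anti-HA fluorescence for expression and streptavidin fluorescence for reagent binding.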
row,Sequence,polyreactivity (PSR sort gate)
1,QVQLVESGGGLVQAGGSLRLSCAASGFTFVVYDMGWYRQAPGKESELVAVINNSGGSTYYADSVKGRFTISRDNAKNTVSLQMNSLKPEDTAVYYCATRTPVWVNTESDYWGQGTQVTVSS,low polyreactivity
2,QVQLVESGGGLVQAGGSLRLSCAASGFTFVYYAKGWYRQAPGKERELVATISGNGGRTYYADSVKGRFTISRDNAKNTVYLQMNSLKPEDTAVYYCAALLYIRSVGYDYWGQGTQVTVSS,low polyreactivity
3,QVQLVESGGGLVQAGGSLRLSCAASGFTFVYYAMGWYRQAPGKERALVASITQSGGSTRYADSVKGRFTISRDNAKNTVYLQMNSLKPEDTAVYYCNRRLYRRWGLDWQYYYWGQGTQVTVSS,high polyreactivity
4,QVQLVESGGGLVQAGGSLRLSCAASGFTFVYYAMGWYRQAPGKERELVAAISRRGGNTNYADSVKGRFTISRDNEKNTVYLQMNSLKTEDTAVYYCNARLTGDRYYYYPMDYWGQGTQVTVST,high polyreactivity
5,QVQLVESGGGLVQAGGSLRLSCAASGFTFVYYAMGWYRQAPGKERELVATISGHGGRTYYADSVKGRFTISRDNAKNTVYLQMNSLKPEDTAVYYCAALLYIRSVGYDYWGQGTQVTVSS,low polyreactivity
6,QVQLVESGGGLVQAGGSLRLSCAASGFTFVYYTMGWSSQAPGKERELVAAISSSGGRTSYADSVKGRFTISRDNEKNTVYLQMNSLKPEDTAVYYCAARAYPTWRTYYYWGQGTQVTVSS,high polyreactivity
7,QVQLVESGGGLVQAGGSLRLSCAASGFTFVYYVMGLYRQAPGKERELVAAINAGGGSTYYADSVKGRFTISRDNAKNTVYLQMNSLKPEDTAVYYCNARVRVRLGRNWSSYYYWGQGTQVTVST,high polyreactivity
8,QVQLVESGGGLVQAGGSLRLSCAASGFTFVYYVMGWYRQAPGKEREKVAAINAGGGSTYYADSVKGRFTISRDNAKNTVYLQMHSLKPEDSAVYYCATRPRYYYFRYDYWGQGTQVTVSS,high polyreactivity
9,QVQLVESGGGLVQAGGSLRLSCAASGFTFVYYVMGWYRQAPGKERELVAAINAGGGSTYYADSVKGRFTISRDNAKNTVYLQMNSLKPEDTAVYYCNARVRVRLGRNWSSYYYCGQGTQVTVSS,high polyreactivity
10,QVQLVESGGGLVQAGGSLRLSCAASGFTFVYYVMGWYRQAPGKERELVAAINAGGGSTYYADSVKGRFTISRDNAKNTVYLQMNSLKPEDTAVYYCNARVRVRLGRNWSSYYYWGQGTQVTVSS,high polyreactivity
11,QVQLVESGGGLVQAGGSLRLSCAASGFTFWAYAMGWYRHAPGKEMEVVAAISKTGGRTYYADSVKGRFTISRDNAKNNDYLQINSLKPEDTAVYYCAVDITGLYYPVDYWGQGTQVTVSS,high polyreactivity
12,QVQLVESGGGLVQAGGSLRLSCAASGFTFWDYAMGWYRQAPGKERELVATISSDGSTNYADSVKGRFTISRDNAKNTVYLQMNSLKPEDTAVYYCAADGYLYFWYPYDYWGQGTQVTVSS,low polyreactivity
13,QVQLVESGGGLVQAGGSLRLSCAASGFTFWDYAMGWYRQSPGKERELVAAISSRGTRTYYADSVKGRFTISRDNAKNTVYLQMNSLKPEDTAVYYCATAITDPDYIHNYWGQGTQVTVSS,high polyreactivity
14,QVQLVESGGGLVQAGGSLRLSCAASGFTFWGYTMGWYRQAPGKERELVAAITSTGSTYYADSVKGRFTISRDNAKNTVYFLMNSLKPEDTAVYYCAATRGSSEYYYWGQGTQLTVSS,low polyreactivity
15,QVQLVESGGGLVQAGGSLRLSCAASGFTFWIYAMGWYRQAPGKERELVAAISASGGSTRYADSVKVRFTISRDNAKNTVYLQMNSLKPEDTAVYYCAAYHGLRRGFDYWGPGTQVTVSS,high polyreactivity
16,QVQLVESGGGLVQAGGSLRLSCAASGFTFWIYAMGWYRQAPGKERELVAVISRGGSTYYADSVKGRFTISRDNAKNTVYLQMNSLKPEDTAVYYCNAVGVRGYDYWGQGTQVTVSS,high polyreactivity
17,QVQLVESGGGLVQAGGSLRLSCAASGFTFWIYAMGWYRQARGKEWELVAAISASGGYTRYADSVKGRFTISRDNAKNTVYLQMNSLKPEDTAVYYCAAYHGLRRGFDYWGEGTQVTVSS,high polyreactivity
18,QVQLVESGGGLVQAGGSLRLSCAASGFTFWLYAMGWYRHAPAKEREFVAAISTSGGSTYADSVKGRFTISRDNAKYTVYLQMNSLKPEDTAVYYCNAGYVLYYDYHLFYWGQGTQVTVSS,low polyreactivity
19,QVQLVESGGGLVQAGGSLRLSCAASGFTFWQYAMGWYRQAPGKERELVAAITWDGGSTYYADSVKGRFTISRDNAKNTVYLQMNSLKPEDTAVYYCAKLFGGTYYEYDYWGQGTQVTVSS,low polyreactivity
20,QVQLVESGGGLVQAGGSLRLSCAASGFTFWRNAMGWYRQAPGKERELVAAISSGTGRTYYADSVKGRFTISRDNAKYTVYLQMNSLKPEDTAVYYCAKVNWRTSYGTSTRDYWGQGTQVTVSS,low polyreactivity

row,Sequence,polyreactivity (PSR sort gate)
1,QVQLVESGGGLVQAGGSLRLSCAASGFTFWRYAMGWSRQAPGKERELVAAISRTGGRTYYADSVKGRFTISRDNAKITVYLQMTSLKPEDTAVYYCAAVKYETYRYNYDYWGQGTQVTVSS,high polyreactivity
2,QVQLVESGGGLVQAGGSLRLSCAASGFTFWRYTMGWYRQAPGKERELVAAISGGTTTYYADSVKGRFTISRDNAKNTVYLQMNSLKPEDTAVYYCAAYSQRARTYDYWGHGTQVTVSS,high polyreactivity
3,QVQLVESGGGLVQAGGSLRLSCAASGFTFWTYAMGWYRQAPGKERELVAAIDSGGSTYYADSVKGRFTISRDNAKNTVFLQMNSLKPEDTAVYYCIAGPSVTSGYDYDYWGQGTQVTVSS,low polyreactivity
4,QVQLVESGGGLVQAGGSLRLSCAASGFTFWTYAMGWYRQAPGKERELVAAIDSGGSTYYADSVKGRFTISRDNAKNTVYLQMNSLKPEDSAVYYCNAGPSVTSGYDYDYWGQGTQVTVSS,low polyreactivity
5,QVQLVESGGGLVQAGGSLRLSCAASGFTFWWYAMGWYRQAPGKERELVAAISSGGSTNYADSVKGRFTISRDNAKNTVYLQMNSLKPEDTAVYYCNALGVGHSGFTKFSRYYYWGQGTQVTVSS,high polyreactivity
6,QVQLVESGGGLVQAGGSLRLSCAASGFTFWYYAMGWYRQAPGKDRELVASISASGGRTNYADSVKGRFTISRDNAKNTVYLQMNSLKPDDTAVYYCNAASLIAAYGDYYWGQGTQVTVSS,high polyreactivity
7,QVQLVESGGGLVQAGGSLRLSCAASGFTFWYYAMGWYRQAPGKERELVAAISWSGGSTSYADSVKGRFTISRDNAKNTVYLQMNSLKREDTAVYYCAASDYYYYSWRPGDTWYEYWGQGTQVSVSS,high polyreactivity
8,QVQLVESGGGLVQAGGSLRLSCAASGFTFWYYAMGWYRQAPGKERELVAAITRGGNTNYADSVKGRFTISRDNAKNTVYLQMNSLKPEDTAVYYCAVRFSAPGYYYWGQGTQVTVSS,high polyreactivity
9,QVQLVESGGGLVQAGGSLRLSCAASGFTFWYYAMGWYRQAPGKERELVATITSGDSTKYADSVKGRFTISRDNAKNTVYLQMNSLKPEDTAVYDCAAEKVLPFIGYDYWGQGTQVTVSS,low polyreactivity
10,QVQLVESGGGLVQAGGSLRLSCAASGFTFYANAMGWYRQAPGKERELVAAISKSGGRTYYADSVKGRFTISRDNAKNTVYLQMNSLKPEDTAVYYCAAVGSVNYEADFDYWGQGTQVTVSS,high polyreactivity
11,QVQLVESGGGLVQAGGSLRLSCAASGFTFYAYAMGWYRQAPGKERELVAAISKRGGITYYADSVKGRFTISRDNAKNTVYLQMNSLKPEDTAVYYCNADRRRRSGGFAGWHFQRNDYWGQGTLVTVSS,low polyreactivity
12,QVQLVESGGGLVQAGGSLRLSCAASGFTFYAYAMGWYRQAPGKERELVAAISTSGTDTYYADSVKGRFTISRDNAKNTVYLQMNSLKPEDTAVYYCAAELYLYGFYEPIYPYSYDYWGHGTQVTVSS,low polyreactivity
13,QVQLVESGGGLVQAGGSLRLSCAASGFTFYAYTMGWYRQAPGKERELVAAIRTGSSTYYADSVKGRFTISRDNAKITVYLQMNSLKPEDTAVYYCDAPRWRRPYRYDYWGQGTQVTVSS,high polyreactivity
14,QVQLVESGGGLVQAGGSLRLSCAASGFTFYENAMGWYRQAPGKERELVATISYSGGTTYYADSVKGRFTISRDNAKNTVYLQMNSLKPEDTAVYYCNADYFYYGFPDDYWGQGTQVTVSS,low polyreactivity
15,QVQLVESGGGLVQAGGSLRLSCAASGFTFYEYAMGWYRQAPGKERELVAAITQTGVRTYYADSVKGRFTISRDNAKNTVYLQMNSLKPEDTAVYYCAADDPRQRPRGHYDYWGQGTQVTVSS,low polyreactivity
16,QVQLVESGGGLVQAGGSLRLSCAASGFTFYFYAKGWYTQSPGKERELVASISSSGGSTYADSVKGPFTISRDNAKNTVYLQMNSLKPEDTAVYYCAATEIFRFRYVAVGYDYWGQGTQVTVSS,low polyreactivity
17,QVQLVESGGGLVQAGGSLRLSCAASGFTFYFYAMAWYRQAPGKERELVAAISSGGSTKYADSVKVRFTISRDNAKNTVYLQMKSLKPEDTAVYYCNRYYPGSGPLGYWGQGTQVTVSS,low polyreactivity
18,QVQLVESGGGLVQAGGSLRLSCAASGFTFYGNAMGWYRQAPGKERELVAAISGRGGSTYYADSVKGRFTISRDNAKNTVYLQMNSLKPEVTAVYYCAIYVSWPLYYYWGQGTQVTVSS,low polyreactivity
19,QVQLVESGGGLVQAGGSLRLSCAASGFTFYGNAMGWYRQAPGKERELVAAISGRGGSTYYADSVKGRFTISRDNAKNTVYLQMNSRKPEDTAVYYCNKRGPYRWYSAPYGYWGQGTQVTVSS,low polyreactivity
20,QVQLVESGGGLVQAGGSLRLSCAASGFTFYGNAMGWYRQAPGKERELVAAISSGGSTNYADSVKGRFTISRDNAKNTVYLQMNSLKPEDTAVYYCAASYPGQVSFPYASIGFDYWGQGTQVTVSS,low polyreactivity
